Data taken from patent US12460006B2, “Antibodies against integrin alpha 11 beta 1” (Momenta Pharmaceuticals, Inc., priority 2019, dated 2025).
Numbering of substitutions follows the chain as printed. “Also recorded” adds a separate entry of the source.

T1: I domain of α11β1 (Homo sapiens, UniProt Q9UKX5)
T1 construct: An in-house generated I domain of α11β1 was used; made in house
T1 sequence (Q9UKX5 164-345 limits assumed): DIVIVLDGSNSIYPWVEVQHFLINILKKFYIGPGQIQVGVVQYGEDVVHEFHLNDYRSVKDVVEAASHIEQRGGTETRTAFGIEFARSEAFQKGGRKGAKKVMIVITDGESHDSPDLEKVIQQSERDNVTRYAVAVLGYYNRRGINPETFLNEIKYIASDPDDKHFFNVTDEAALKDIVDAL

B1: 24E4G6: rat anti-α11β1 mAb; VH SEQ ID NO: 147, VL SEQ ID NO: 148 (antibody, V domains shown)
VH: MELELSLIFIFSLLKDVQCEVQLVESGGSLVQPGGSLKLSCVASGYTFSNYWMDWVRQSPGKSLEWIGEINTDGRRTNYAPSIKDRFTISRDNAKSTLYLQMSNVKSDDTAIYYCTILRVYPHYFDYWGQGVMVTVSS
VL: MMSPAQFLFLLMLWIQEARGDVVMTQTPPSLSVAIGQSVSISCKSSQSLVYSDGETYLHWFLQSPGRSPKRLIYHVSNLGSGVPDRFSGTGSLTDFTLRISRVEAEDLGVYYCAQTTHFPPTFGAGTKLELK
B2: 16G7: rabbit anti-α11β1 mAb; heavy chain SEQ ID NO: 159, light chain SEQ ID NO: 160 (antibody)
heavy: METGLRWLLLVAVFKGVQCQEQLVESGGDLVKPGASLTLTCTASGFSFNKNYWMCWVRQAPGKGLEWIGCIYNGDGNTYYASWVNGRFTISKTSSTTVTLQMTSLTVADTAIYFCARLLNMWGPGTLVTVSSGQPKAPSVFPLAPCCGDTPSSTVTLGCLVKGYLPEPVTVTWNSGTLTNGVRTFPSVRQSSGLYSLSSVVSVTSSSQPVTCNVAHPATNTKVDKTVAPSTCSKPMCPPPELPGGPSVFIFPPKPKDTLMISRTPEVTCVVVDVSQDDPEVQFTWYINNEQVRTARPPLREQQFNSTIRVVSTLPIAHQDWLRGKEFKCKVHNKALPAPIEKTISKARGQPLEPKVYTMGPPREELSSRSVSLTCMINGFYPSDISVEWEKNGKAEDNYKTTPTVLDSDGSYFLYSKLSVPTSEWQRGDVFTCSVMHEALHNHYTQKSISRSPGK
light: MDTRAPTQLLGLLLLWLPGARCADIVMTQTPASVEAAVGGTVTIKCQASESIGNALAWYQQKPGQPPKLLIYTAATLASGVPSRFSGSGSGTEFTLTISGVQCDDAATYYCQSYYFTSVSSYGNAFGGGTEVVVKGDPVAPTVLIFPPAADQVATGTVTIVCVANKYFPDVTVTWEVDGTTQTTGIENSKTPQNSADCTYNLSSTLTLTSTQYNSHKEYTCKVTQGTTSVVQSFNRGDC
B3: 10-F23: mouse anti-α11β1 mAb; VH SEQ ID NO: 125, VL SEQ ID NO: 126 (antibody, V domains shown)
VH: QVTLKESGPGILQPSQTLSLTCSFSGFSLSTFAMGVGWIRQPSGKGLEWLAHIWWDDDKYYNPALKSRLTISKDTSKNHVFLKIANVDTADTATYYCARMPLTFYFDYWGQGTTLTVSS
VL: DVLLTQTPLSLPVSLGDQASISCRSSQSIVHSNGHTYLEWYLQKPGQSPKLLIYKVSNRFSGVPDRFSGSGSGTDFTLKISRVEAEDLGVYYCFQGSHVPFTFGGGTKLEIK
B4: 6-A12: mouse anti-α11β1 mAb; VH SEQ ID NO: 127, VL SEQ ID NO: 128 (antibody, V domains shown)
VH: B3 VH with S30R, H79Q
VL: B3 VL with L4M, H35N, N58T
B5: 3-G5: mouse anti-α11β1 mAb; VH SEQ ID NO: 135, VL SEQ ID NO: 136 (antibody, V domains shown)
VH: QVQLQQSGAELARPGASVKLSCKASGYTFTSYGISWVKQRTGQGLEWIGEIFPRSSNTYYNEKFKGKATLTADKSSSTVYMEFRSLTSEDSAVYFCAREGGLAWFAYWGQGTLVTVSA
VL: DVVMTQTPLTLSVTIGQPASISCKSSQSLLYTNGNTYLNWLLQRPGQSPKRLIYLVSKLDSGIPDRFSGSGSGTDFTLRISRVEAEDLGVYYCLQSTHFPFTFGSGTKLEIK
B6: 6-O12: mouse anti-α11β1 mAb; VH SEQ ID NO: 117, VL SEQ ID NO: 118 (antibody, V domains shown)
VH: EVKLEESGGGLVQPGGSMKLSCAASGFTFSDAWMDWVRQSPEAGLEWVAEIRNKAHNPATYYAESVKGRFTISRDDSKSSVYLQMNSLRAEDTGIYYCTLVAPDAMDYWGQGTSVTVSS
VL: DIVMSLSPSSLAVSVGEKVTMSCKSSQSLLYSRNQKNYLAWYQQKPGQSPKLLIYWASTRASGVPDRFTGSGSGTDFTLTISSVKAEDLAVYYCQQYYSYPYTFGGGTKLEIK
B7: 6-B21: mouse anti-α11β1 mAb; VH SEQ ID NO: 123, VL SEQ ID NO: 124 (antibody, V domains shown)
VH: EVQLQQSGPELVKPGASVKISCKASGYTFTDYYMNWVKQSHGKSLEWIGDINPHNGGTSFIQKFKGKATLTVDKSSSTAYMELRSLTSEDSAVYYCAPLGRKEGFAYWGQGTLVTVSA
VL: DTVLTQSPASLVVSLGQRATISCRASKSVSTSGYSYMHWYQQKPGQPPKLLIYLASNLESGVPARFSGSGSGTAFTLNIHPVEEEDAATYYCQHSRELPYTFGGGTKLEIK

test system: CHO-K1 cells expressing human α11; experiment: Cell adhesion inhibition (xCelligence), type I collagen; format: cell-based; conditions: CHO-K1 hu α11 cells
Procedure, shortened: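 CHO-K1 cells expressing human α11 (0.6×10^6 cells/mL) were preincubated with mAbs across a concentration range for 20 min at 37° C, then seeded on wells coated with 100 ng/mL type I collagen and blocked with 3% BSA. Impedance-based adhesion was recorded over 6 h, and maximum adhesion was compared with untreated control.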

Molecule	inhibition of cell adhesion to type I collagen
B1	nor did it inhibit cell adhesion
B2	didn't have an effect on cell adhesion

same assay, conditions: Yes/No

Molecule	Inhibition of CHO-K1 adhesion to collagen
B3	Yes
B4	Yes
B5	No
B6	No
B1	No
B2	No
B7	No

target: human α11β1 (Homo sapiens, UniProt Q9UKX5); experiment: ELISA binding to recombinant human α11β1; conditions: binding Yes/No
Procedure: (§1) 0.25 μg/mL of target antigen (recombinant human or mouse α11β1) was plated in a 96-well plate over night at 4° C. Plates were washed (PBS with 0.1% Tween-20), blocked (PBS with 2% BSA and 0.05% Tween-20) for 1 hour at room temperature and incubated with a range of antibody concentrations for 1 hour at room temperature. Subsequently, plates were washed and incubated with biotinylated anti-rabbit/mouse/human IgG in a 1:1000 dilution buffer and incubated for 1 hour at room temperature. After washing the plates, Streptavidin HRP was added at 1:200 in dilution buffer and incubated for 1 hour at room temperature. Ultra TMB ELISA substrate solution was added and the plates incubated for 5 minutes on a plate shaker. The reaction was stopped by adding stop solution to each well and plates were read at 450 nm.

Sequence of human α11β1 (Q9UKX5 23-1141 limits assumed): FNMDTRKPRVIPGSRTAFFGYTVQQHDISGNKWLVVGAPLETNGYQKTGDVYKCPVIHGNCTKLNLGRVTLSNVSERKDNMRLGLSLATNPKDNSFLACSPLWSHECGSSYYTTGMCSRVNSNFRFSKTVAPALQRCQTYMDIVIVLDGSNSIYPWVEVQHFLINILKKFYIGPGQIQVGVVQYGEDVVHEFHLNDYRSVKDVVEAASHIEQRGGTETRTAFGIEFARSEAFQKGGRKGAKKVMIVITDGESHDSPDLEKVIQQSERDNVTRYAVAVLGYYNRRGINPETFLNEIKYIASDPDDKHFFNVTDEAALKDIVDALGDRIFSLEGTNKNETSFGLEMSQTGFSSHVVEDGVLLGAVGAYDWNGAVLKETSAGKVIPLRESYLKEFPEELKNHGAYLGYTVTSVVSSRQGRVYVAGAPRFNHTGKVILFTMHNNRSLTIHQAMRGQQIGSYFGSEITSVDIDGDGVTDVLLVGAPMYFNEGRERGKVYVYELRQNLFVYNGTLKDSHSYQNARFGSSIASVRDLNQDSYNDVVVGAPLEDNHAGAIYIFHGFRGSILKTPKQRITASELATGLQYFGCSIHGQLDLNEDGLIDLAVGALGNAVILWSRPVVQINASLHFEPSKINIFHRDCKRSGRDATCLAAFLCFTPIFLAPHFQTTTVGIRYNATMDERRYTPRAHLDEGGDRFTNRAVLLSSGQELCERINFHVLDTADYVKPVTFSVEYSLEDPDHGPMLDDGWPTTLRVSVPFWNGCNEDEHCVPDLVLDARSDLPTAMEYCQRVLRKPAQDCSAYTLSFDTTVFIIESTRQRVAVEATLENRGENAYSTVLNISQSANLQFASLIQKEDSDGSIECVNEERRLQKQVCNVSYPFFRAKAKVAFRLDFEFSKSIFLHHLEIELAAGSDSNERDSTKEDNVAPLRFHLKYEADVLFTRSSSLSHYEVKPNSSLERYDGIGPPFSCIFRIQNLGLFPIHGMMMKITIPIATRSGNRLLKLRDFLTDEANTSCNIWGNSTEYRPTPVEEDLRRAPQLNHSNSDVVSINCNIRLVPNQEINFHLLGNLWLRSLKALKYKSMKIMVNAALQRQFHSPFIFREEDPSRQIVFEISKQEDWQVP
Sequence of human α11β1 (P05556 21-728 partner limits assumed): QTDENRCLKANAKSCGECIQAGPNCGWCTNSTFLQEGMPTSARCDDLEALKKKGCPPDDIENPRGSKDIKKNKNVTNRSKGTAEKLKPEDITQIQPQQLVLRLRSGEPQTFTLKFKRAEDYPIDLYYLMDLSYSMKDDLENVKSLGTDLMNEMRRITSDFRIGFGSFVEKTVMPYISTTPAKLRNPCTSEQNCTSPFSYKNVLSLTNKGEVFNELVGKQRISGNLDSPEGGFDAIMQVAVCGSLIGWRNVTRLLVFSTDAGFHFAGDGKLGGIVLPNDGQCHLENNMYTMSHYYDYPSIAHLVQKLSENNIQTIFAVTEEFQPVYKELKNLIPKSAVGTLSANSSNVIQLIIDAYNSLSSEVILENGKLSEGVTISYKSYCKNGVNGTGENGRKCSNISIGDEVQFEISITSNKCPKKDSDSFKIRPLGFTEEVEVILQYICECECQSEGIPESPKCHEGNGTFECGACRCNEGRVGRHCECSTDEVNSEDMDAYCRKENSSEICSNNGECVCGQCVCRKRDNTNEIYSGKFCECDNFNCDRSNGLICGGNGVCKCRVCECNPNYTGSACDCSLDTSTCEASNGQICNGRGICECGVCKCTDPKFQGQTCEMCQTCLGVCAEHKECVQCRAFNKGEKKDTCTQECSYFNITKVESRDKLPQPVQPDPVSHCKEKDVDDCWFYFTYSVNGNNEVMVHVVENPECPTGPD

Human α11β1 ELISA	Molecule
Yes	B3
Yes	B4
Yes	B5
Yes	B6
Yes	B1
Yes	B2
Yes	B7

target: T1, I domain of α11β1; experiment: ELISA binding to in-house generated I domain of α11β1; conditions: not given
Procedure: as §1
22 Data was also collected to determine whether antibodies of interest bind to the I domain of α11β1. An in-house generated I domain of α11β1 was used. […] Mouse antibodies 10-F23, 10-L15, 7-O8, 6-A12, 9-G05 and 9-E16 and rabbit antibodies 7-H12 and 2-D3 were also tested for binding against the in-house generated α11031 domain. FIGS. 3A and 3B show graphs illustrating binding data from exemplary mAbs.

Molecule	I-domain binder
B1	did not bind to the I-domain; also recorded: neither of the antibodies was found to be an I-domain binder

same assay, conditions: Yes/No

I Domain binding	Molecule
Yes	B3
Yes	B4
No	B5
No	B6
No	B1
No	B2
No	B7

test system: human pulmonary fibroblasts (HPFs); experiment: FACS antibody binding to human pulmonary fibroblasts; conditions: binding Yes/No
Procedure: (§2) Human Pulmonary Fibroblasts (ScienCell) were cultured in complete Fibroblast Growth Medium (ScienCell) until 80% confluent in T-150 flasks. Cells were washed and harvested using Accutase. Cells were seeded into T-150 flasks at 7,500 cells/cm^2 in complete FGF and cultured for 72 hours. Cells were then washed and starved in serum reduced medium for 24 hours. After starvation, cells were treated with TGFβ-1 (R&D Systems) for 72 hours. Cells were harvested using Accutase and seeded in 96-well conical bottom plates. Cells were blocked with Heat Inactived Fetal Bovine Serum (Gibco) for 30 minutes at 4° C. Cells were then incubated with anti-α11 antibodies at the doses described in each figure for 30 minutes at 4° C. A human anti-α11 antibody (Creative BioLabs) was included as a positive control as well as the appropriate IgG isotype negative controls. Cells were washed twice and incubated with PE conjugated secondary antibodies specific to the IgG class of the anti-α11 antibodies being tested for 30 minutes at 4° C. Cells were washed twice and fixed in 1% PFA for 30 minutes. Cells were acquired on a FACS Verse […]. Data were analyzed by gating on single cells and determining the geometric Mean Fluorescence Intensity (gMFI) in the PE channel for each sample.
(§3) Binding to a physiologically relevant primary human cell type was also tested. Human pulmonary fibroblasts (HPF) and TGFβ treatment were used to induce a fibroblast-to-myofibroblast transition (FMT), giving rise to myofibroblasts (MF). […] Additionally, HPFs express α11 and α2β1, other collagen binding receptors, which means that HPFs can be to test cross-reactivity of antibodies of interest.

HPF FACS	Molecule
No	B3
No	B4
No	B5
No	B6
No	B1
No	B2
No	B7

test system: myofibroblasts (MF); experiment: FACS antibody binding to myofibroblasts; parameters: species or system human; conditions: binding Yes/No
Procedure: as §2, §3

MF FACS	Molecule
Yes	B3
Yes	B4
No	B5
No	B6
Yes	B1
Yes	B2
No	B7

test system: Human Pulmonary Fibroblasts; experiment: Fibroblast-to-Myofibroblasts Transition (FMT), αSMA expression; format: cell-based; conditions: TGFβ-induced FMT
Procedure: Human Pulmonary Fibroblasts (ScienCell) were cultured in complete Fibroblast Growth Medium (ScienCell) until 80% confluent. Cells were washed and harvested using Accutase. Cells were seeded onto tissue culture-treated 96 well plates at 20,000 cells/well in complete Fibroblast Growth Medium. After 24 hours, cells were washed and starved in serum reduced medium for an additional 24 hours. After starvation, cells were treated with TGFβ-1 (R&D Systems) with or without anti-α11 antibodies. A polyclonal rabbit anti-human α11 antibody was used as a positive control. Appropriate IgG isotype controls were also included. After 48 hours, cells were harvested, fixed, permeabilized and stained with AlexaFluor488 Labeled Anti-αSMA (α-smooth muscle actin) (Invitrogen). Cells were acquired on a FACS Verse (Benton Dickson) to determine expression levels of αSMA. Data were analyzed by gating on single cells and determining the geometric Mean Fluorescence Intensity (gMFI) in the FITC channel for each sample. gMFI for each sample was normalized to the untreated control and presented as % inhibition.
In addition to the binding abilities described above, it is important for an anti-α11β1 antibody to inhibit the fibroblast-to-myofibroblast transition (FMT). It is now appreciated that myofibroblasts are a heterogeneous cell population, existing in different activation states, with the main function of producing and contracting collagen extracellular matrix (ECM). FMT is a multi-step event that is controlled by a changing mechanical environment in tissues undergoing repair. TGFβ is one of the potent factors that potentiates this process and alpha smooth muscle actin (αSMA) is one of the main markers that becomes overexpressed when fibroblasts are undergoing the transition to becoming myofibroblasts. The presence of αSMA enhances fibroblast contraction and guides myofibroblast activation through an intracellular feedback loop. Because αSMA is the main molecular marker of myofibroblasts, the ability of the novel anti-α11β1 mAbs to inhibit αSMA expression in TGFβ-induced FMT was tested.

Molecule	inhibition of αSMA expression / FMT
B1	significantly inhibited αSMA expression
B2	inhibit FMT

same assay, conditions: Yes/No

Molecule	Inhibition of FMT
B3	No
B4	No
B5	No
B6	No
B1	Yes
B2	Yes
B7	No
